T1: recombinant Factor VIII (CSL627, rVIII-SingleChain) (Homo sapiens (Human), UniProt P00451 20-2351)
T1 construct: also called FVIII
T1 sequence: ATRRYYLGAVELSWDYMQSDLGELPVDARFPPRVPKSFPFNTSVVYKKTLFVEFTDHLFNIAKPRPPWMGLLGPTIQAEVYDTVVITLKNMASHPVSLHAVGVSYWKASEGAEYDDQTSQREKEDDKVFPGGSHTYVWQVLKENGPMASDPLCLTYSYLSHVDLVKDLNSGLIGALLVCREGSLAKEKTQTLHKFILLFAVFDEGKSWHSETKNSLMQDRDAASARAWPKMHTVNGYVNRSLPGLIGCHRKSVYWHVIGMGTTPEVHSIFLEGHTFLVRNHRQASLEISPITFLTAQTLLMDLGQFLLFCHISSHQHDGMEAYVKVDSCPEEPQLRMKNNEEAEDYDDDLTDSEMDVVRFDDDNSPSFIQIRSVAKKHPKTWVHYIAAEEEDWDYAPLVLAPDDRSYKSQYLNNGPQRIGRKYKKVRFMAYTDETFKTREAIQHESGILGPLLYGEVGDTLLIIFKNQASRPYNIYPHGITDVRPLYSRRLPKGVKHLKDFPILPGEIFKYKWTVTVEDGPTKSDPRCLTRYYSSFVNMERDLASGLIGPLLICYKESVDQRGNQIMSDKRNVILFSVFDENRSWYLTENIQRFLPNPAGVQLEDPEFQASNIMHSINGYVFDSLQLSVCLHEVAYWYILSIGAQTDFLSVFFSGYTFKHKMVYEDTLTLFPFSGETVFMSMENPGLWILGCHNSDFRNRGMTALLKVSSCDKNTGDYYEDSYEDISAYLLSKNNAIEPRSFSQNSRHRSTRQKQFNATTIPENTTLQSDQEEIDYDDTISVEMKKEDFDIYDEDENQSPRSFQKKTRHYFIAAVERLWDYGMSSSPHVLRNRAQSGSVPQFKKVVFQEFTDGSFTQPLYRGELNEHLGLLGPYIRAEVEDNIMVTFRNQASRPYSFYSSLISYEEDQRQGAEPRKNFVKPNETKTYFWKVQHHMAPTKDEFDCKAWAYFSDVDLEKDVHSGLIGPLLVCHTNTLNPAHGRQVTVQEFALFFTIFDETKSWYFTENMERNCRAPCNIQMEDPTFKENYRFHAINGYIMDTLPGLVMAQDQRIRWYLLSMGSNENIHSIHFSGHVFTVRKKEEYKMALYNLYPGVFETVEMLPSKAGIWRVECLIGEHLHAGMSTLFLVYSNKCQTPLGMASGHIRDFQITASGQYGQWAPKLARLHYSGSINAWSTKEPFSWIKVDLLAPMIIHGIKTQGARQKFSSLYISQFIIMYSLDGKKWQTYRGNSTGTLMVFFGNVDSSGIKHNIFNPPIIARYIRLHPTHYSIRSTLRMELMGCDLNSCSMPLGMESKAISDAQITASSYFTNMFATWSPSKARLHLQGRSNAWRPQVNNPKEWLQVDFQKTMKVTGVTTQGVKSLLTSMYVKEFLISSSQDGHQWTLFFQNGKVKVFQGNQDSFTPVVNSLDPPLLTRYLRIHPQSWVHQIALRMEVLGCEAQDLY


Molecular target: T1, recombinant Factor VIII (CSL627, …)
Test: SPR, anti-His capture
Procedure, shortened: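 His-tagged mutants were captured directly from culture medium onto an anti-His surface (14,000 RU) at 40-150 RU. FVIII at 1 nM was injected for 5 min, followed by 5 min dissociation. Double-referenced sensorgrams were fitted to a 1:1 kinetic model.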

| Binder | Kd | koff | kon |
| --- | --- | --- | --- |
| Hu-vWF[764-1270]-8His S764P-L765M (other) PMSCRPPMVKLVCPADNLRAEGLECTKTCQNYDLECMSMGCVSGCLCPPGMVRHENRCVALERCPCFHQGKEYAPGETVKIGCNTCVCRDRKWNCTDHVCDATCSTIGMAHYLTFDGLKYLFPGECQYVLVQDYCGSNPGTFRILVGNKGCSHPSVKCKKRVTILVEGGEIELFDGEVNVKRPMKDETHFEVVESGRYIILLLGKALSVVWDRHLSISVVLKQTYQEKVCGLCGNFDGIQNNDLTSSNLQVEEDPVDFGNSWKVSSQCADTRKVPLDSSPATCHNNIMKQTMVDSSCRILTSDVFQDCNKLVDPEPYLDVCIYDTCSCESIGDCACFCDTIAAYAHVCAQHGKVVTWRTATLCPQSCEERNLRENGYECEWRYNSCAPACQVTCQHPEPLACPVQCVEGCHAHCPPGKILDELLQTCVDPEDCPVCEVAGRRFASGKKVTLNPSDPEHCQICHCDVVNLTCEACQEPGGLVVPPTDAPVSPTTLYVEDISEPPLHDFHHHHHHHH | 0.0243 nM | 0.000237 s⁻¹ | 9.76e+06 M⁻¹ s⁻¹ |
| Hu-vWF[764-1270]-8His S764P-L765P (other) PPSCRPPMVKLVCPADNLRAEGLECTKTCQNYDLECMSMGCVSGCLCPPGMVRHENRCVALERCPCFHQGKEYAPGETVKIGCNTCVCRDRKWNCTDHVCDATCSTIGMAHYLTFDGLKYLFPGECQYVLVQDYCGSNPGTFRILVGNKGCSHPSVKCKKRVTILVEGGEIELFDGEVNVKRPMKDETHFEVVESGRYIILLLGKALSVVWDRHLSISVVLKQTYQEKVCGLCGNFDGIQNNDLTSSNLQVEEDPVDFGNSWKVSSQCADTRKVPLDSSPATCHNNIMKQTMVDSSCRILTSDVFQDCNKLVDPEPYLDVCIYDTCSCESIGDCACFCDTIAAYAHVCAQHGKVVTWRTATLCPQSCEERNLRENGYECEWRYNSCAPACQVTCQHPEPLACPVQCVEGCHAHCPPGKILDELLQTCVDPEDCPVCEVAGRRFASGKKVTLNPSDPEHCQICHCDVVNLTCEACQEPGGLVVPPTDAPVSPTTLYVEDISEPPLHDFHHHHHHHH | 0.0238 nM | 0.000242 s⁻¹ | 1.02e+07 M⁻¹ s⁻¹ |
| Hu-vWF[764-1270]-8His S764P-L765Y (other) PYSCRPPMVKLVCPADNLRAEGLECTKTCQNYDLECMSMGCVSGCLCPPGMVRHENRCVALERCPCFHQGKEYAPGETVKIGCNTCVCRDRKWNCTDHVCDATCSTIGMAHYLTFDGLKYLFPGECQYVLVQDYCGSNPGTFRILVGNKGCSHPSVKCKKRVTILVEGGEIELFDGEVNVKRPMKDETHFEVVESGRYIILLLGKALSVVWDRHLSISVVLKQTYQEKVCGLCGNFDGIQNNDLTSSNLQVEEDPVDFGNSWKVSSQCADTRKVPLDSSPATCHNNIMKQTMVDSSCRILTSDVFQDCNKLVDPEPYLDVCIYDTCSCESIGDCACFCDTIAAYAHVCAQHGKVVTWRTATLCPQSCEERNLRENGYECEWRYNSCAPACQVTCQHPEPLACPVQCVEGCHAHCPPGKILDELLQTCVDPEDCPVCEVAGRRFASGKKVTLNPSDPEHCQICHCDVVNLTCEACQEPGGLVVPPTDAPVSPTTLYVEDISEPPLHDFHHHHHHHH | 0.355 nM | 0.0022 s⁻¹ | 6.19e+06 M⁻¹ s⁻¹ |

The remaining lines, values ahead:

| Kd | koff | kon | Binder |
| --- | --- | --- | --- |
| 0.0118 nM | 9.52e-05 s⁻¹ | 8.08e+06 M⁻¹ s⁻¹ | Hu-vWF[764-1270]-8His S764P-L765I (other) PISCRPPMVKLVCPADNLRAEGLECTKTCQNYDLECMSMGCVSGCLCPPGMVRHENRCVALERCPCFHQGKEYAPGETVKIGCNTCVCRDRKWNCTDHVCDATCSTIGMAHYLTFDGLKYLFPGECQYVLVQDYCGSNPGTFRILVGNKGCSHPSVKCKKRVTILVEGGEIELFDGEVNVKRPMKDETHFEVVESGRYIILLLGKALSVVWDRHLSISVVLKQTYQEKVCGLCGNFDGIQNNDLTSSNLQVEEDPVDFGNSWKVSSQCADTRKVPLDSSPATCHNNIMKQTMVDSSCRILTSDVFQDCNKLVDPEPYLDVCIYDTCSCESIGDCACFCDTIAAYAHVCAQHGKVVTWRTATLCPQSCEERNLRENGYECEWRYNSCAPACQVTCQHPEPLACPVQCVEGCHAHCPPGKILDELLQTCVDPEDCPVCEVAGRRFASGKKVTLNPSDPEHCQICHCDVVNLTCEACQEPGGLVVPPTDAPVSPTTLYVEDISEPPLHDFHHHHHHHH |
| 0.88 nM | 0.00714 s⁻¹ | 8.12e+06 M⁻¹ s⁻¹ | Hu-vWF[764-1270]-8His S764P-L765Q (other) PQSCRPPMVKLVCPADNLRAEGLECTKTCQNYDLECMSMGCVSGCLCPPGMVRHENRCVALERCPCFHQGKEYAPGETVKIGCNTCVCRDRKWNCTDHVCDATCSTIGMAHYLTFDGLKYLFPGECQYVLVQDYCGSNPGTFRILVGNKGCSHPSVKCKKRVTILVEGGEIELFDGEVNVKRPMKDETHFEVVESGRYIILLLGKALSVVWDRHLSISVVLKQTYQEKVCGLCGNFDGIQNNDLTSSNLQVEEDPVDFGNSWKVSSQCADTRKVPLDSSPATCHNNIMKQTMVDSSCRILTSDVFQDCNKLVDPEPYLDVCIYDTCSCESIGDCACFCDTIAAYAHVCAQHGKVVTWRTATLCPQSCEERNLRENGYECEWRYNSCAPACQVTCQHPEPLACPVQCVEGCHAHCPPGKILDELLQTCVDPEDCPVCEVAGRRFASGKKVTLNPSDPEHCQICHCDVVNLTCEACQEPGGLVVPPTDAPVSPTTLYVEDISEPPLHDFHHHHHHHH |
| 0.634 nM | 0.00882 s⁻¹ | 1.39e+07 M⁻¹ s⁻¹ | Hu-vWF[764-1270]-8His S764P-L765T (other) PTSCRPPMVKLVCPADNLRAEGLECTKTCQNYDLECMSMGCVSGCLCPPGMVRHENRCVALERCPCFHQGKEYAPGETVKIGCNTCVCRDRKWNCTDHVCDATCSTIGMAHYLTFDGLKYLFPGECQYVLVQDYCGSNPGTFRILVGNKGCSHPSVKCKKRVTILVEGGEIELFDGEVNVKRPMKDETHFEVVESGRYIILLLGKALSVVWDRHLSISVVLKQTYQEKVCGLCGNFDGIQNNDLTSSNLQVEEDPVDFGNSWKVSSQCADTRKVPLDSSPATCHNNIMKQTMVDSSCRILTSDVFQDCNKLVDPEPYLDVCIYDTCSCESIGDCACFCDTIAAYAHVCAQHGKVVTWRTATLCPQSCEERNLRENGYECEWRYNSCAPACQVTCQHPEPLACPVQCVEGCHAHCPPGKILDELLQTCVDPEDCPVCEVAGRRFASGKKVTLNPSDPEHCQICHCDVVNLTCEACQEPGGLVVPPTDAPVSPTTLYVEDISEPPLHDFHHHHHHHH |
| 0.355 nM | 0.0022 s⁻¹ | 6.19e+06 M⁻¹ s⁻¹ | Hu-vWF[764-1270]-8His S764P-L765V (other) PVSCRPPMVKLVCPADNLRAEGLECTKTCQNYDLECMSMGCVSGCLCPPGMVRHENRCVALERCPCFHQGKEYAPGETVKIGCNTCVCRDRKWNCTDHVCDATCSTIGMAHYLTFDGLKYLFPGECQYVLVQDYCGSNPGTFRILVGNKGCSHPSVKCKKRVTILVEGGEIELFDGEVNVKRPMKDETHFEVVESGRYIILLLGKALSVVWDRHLSISVVLKQTYQEKVCGLCGNFDGIQNNDLTSSNLQVEEDPVDFGNSWKVSSQCADTRKVPLDSSPATCHNNIMKQTMVDSSCRILTSDVFQDCNKLVDPEPYLDVCIYDTCSCESIGDCACFCDTIAAYAHVCAQHGKVVTWRTATLCPQSCEERNLRENGYECEWRYNSCAPACQVTCQHPEPLACPVQCVEGCHAHCPPGKILDELLQTCVDPEDCPVCEVAGRRFASGKKVTLNPSDPEHCQICHCDVVNLTCEACQEPGGLVVPPTDAPVSPTTLYVEDISEPPLHDFHHHHHHHH |
| 0.645 nM | 0.00514 s⁻¹ | 7.97e+06 M⁻¹ s⁻¹ | Hu-vWF[764-1270]-8His S764P-L765W (other) PWSCRPPMVKLVCPADNLRAEGLECTKTCQNYDLECMSMGCVSGCLCPPGMVRHENRCVALERCPCFHQGKEYAPGETVKIGCNTCVCRDRKWNCTDHVCDATCSTIGMAHYLTFDGLKYLFPGECQYVLVQDYCGSNPGTFRILVGNKGCSHPSVKCKKRVTILVEGGEIELFDGEVNVKRPMKDETHFEVVESGRYIILLLGKALSVVWDRHLSISVVLKQTYQEKVCGLCGNFDGIQNNDLTSSNLQVEEDPVDFGNSWKVSSQCADTRKVPLDSSPATCHNNIMKQTMVDSSCRILTSDVFQDCNKLVDPEPYLDVCIYDTCSCESIGDCACFCDTIAAYAHVCAQHGKVVTWRTATLCPQSCEERNLRENGYECEWRYNSCAPACQVTCQHPEPLACPVQCVEGCHAHCPPGKILDELLQTCVDPEDCPVCEVAGRRFASGKKVTLNPSDPEHCQICHCDVVNLTCEACQEPGGLVVPPTDAPVSPTTLYVEDISEPPLHDFHHHHHHHH |
